# Measurements reported in patent US20230285504A1, “INHIBITION OF REPERFUSION INJURY WITH A PSD-95 INHIBITOR” (NONO INC., priority 2020, published 2023).
# Where two headings read alike, the source gives them in different places.
# Tests used:
# [1] = cited from earlier work
# [2] = test system: embolic middle cerebral artery occlusion (eMCAO)
# Procedure: Nerinetide (7.6 mg/kg) was administered as an intravenous bolus injection either 30 minutes before, or simultaneously with, the onset of a 60-minute infusion of rt-PA (5.4 mg/kg with a 10% bolus followed by 90% over 60 minutes). […] Experimental timeline. […] Hemispheric Infarct volume measurements 24 hours after eMCAo. […] Percentage of hemispheric brain swelling 24 hours after eMCAo and (D). Neurological scores 24 hours after eMCAo. Treatments were administered intravenously at the times indicated in (A). Bars represent mean±SD, with all individual data points plotted. Significant differences (in B) and (in C) are indicated with an asterisk when compared to the control group/nerinetide alone or with a number sign when compare to the thrombolytic agent (one-way ANOVA post hoc Tukey's correction for multiple comparisons test, *P<0.01 or #P <0.01, respectively) N=12-15 animals/group. Significant differences (in D) are indicated with an asterisk when compared to the control group/nerinetide alone or with a number sign when compare to the thrombolytic agent (Kruskal-Wallis analysis of variance on ranks with a post-hoc Dunn's correction for multiple comparisons test, *P<0.01 or #P<0.01, respectively).
# To test this, male Sprague-Dawley rats (10-12 weeks old; 270-310 g; Charles River, Montreal, QC, Canada) were subjected to embolic middle cerebral artery occlusion (eMCAO), produced by the introduction of an autologous blood thrombus into the middle cerebral artery. Reperfusion was achieved by treatment with intravenous alteplase at a total dose of 5.4 mg/kg beginning at 90 minutes after ischemia onset. Alteplase was administered using the human injection protocol in which 10% of the total dose is given as a bolus, with the remainder 90% of the dose being given over a 60-minute infusion. The dose of alteplase was 6 times the human dose, in anticipation that the rat fibrinolytic system may be less sensitive to human recombinant tPA. […] Nerinetide was administered either 30 minutes prior to, or concurrently with, the start of the alteplase administration (FIG. 7A) at a dose of 7.6 mg/kg. […] Infarct volumes, hemispheric swelling and neurological scores were evaluated at 24 hours.
molecule,measurement,setting,value
alteplase [reference compound],plasma half-life in human plasma,[1]; in vivo,about five
same,reduction of infarction volume,[2]; alteplase alone 5.4 mg/kg given at 60 min after eMCAO,26%
same,reduction of infarction volume,[2]; alteplase alone 5.4 mg/kg given at 90 minutes after eMCAO,18%
same,mortality in pilot studies,"[2]; rat, alteplase 10x human dose, hemorrhagic conversions of strokes",unacceptable mortality rates
plasmin,"cleavage of nerinetide by plasmin, LC/MS of fragments after incubation in PBS at 37 C",Tat-NR2B9c,Cleavage products consistent with these sites of cleavage were observed after incubating nerinetide (18 mg/mL) with plasmin (1 mg/mL) in phosphate-buffered saline at 37 °C and analyzing the samples by LC/MS
"Plasmin: serine protease activated by thrombolytics to dissolve fibrin blood clots; cleaves nerinetide (protein, UniProt P00747 20-580; P00747 581-810, looked up, Plasmin, cleaves nerinetide) Plasmin heavy chain A: EPLDDYVNTQGASLFSVTKKQLGAGSIEECAAKCEEDEEFTCRAFQYHSKEQQCVIMAENRKSSIIIRMRDVVLFEKKVYLSECKTGNGKNYRGTMSKTKNGITCQKWSSTSPHRPRFSPATHPSEGLEENYCRNPDNDPQGPWCYTTDPEKRYDYCDILECEEECMHCSGENYDGKISKTMSGLECQAWDSQSPHAHGYIPSKFPNKNLKKNYCRNPDRELRPWCFTTDPNKRWELCDIPRCTTPPPSSGPTYQCLKGTGENYRGNVAVTVSGHTCQHWSAQTPHTHNRTPENFPCKNLDENYCRNPDGKRAPWCHTTNSQVRWEYCKIPSCDSSPVSTEQLAPTAPPELTPVVQDCYHGDGQSYRGTSSTTTTGKKCQSWSSMTPHRHQKTPENYPNAGLTMNYCRNPDADKGPWCFTTDPSVRWEYCNLKKCSGTEASVVAPPPVVLLPDVETPSEEDCMFGNGKGYRGKRATTVTGTPCQDWAAQEPHRHSIFTPETNPRAGLEKNYCRNPDGDVGGPWCYTTNPRKLYDYCDVPQCAAPSFDCGKPQVEPKKCPGR Plasmin light chain B: VVGGCVAHPHSWPWQVSLRTRFGMHFCGGTLISPEWVLTAAHCLEKSPRPSSYKVILGAHQEVNLEPHVQEIEVSRLFLEPTRKDIALLKLSSPAVITDKVIPACLPSPNYVVADRTECFITGWGETQGTFGAGLLKEAQLPVIENKVCNRYEFLNGRVQSTELCAGHLAGGTDSCQGDSGGPLVCFEKDKYILQGVTSWGLGCARPNKPGVYVRVSRFVTWIEGVMRNN",half-life in human plasma,[1]; has been reported,4 to 8 h
